T1: recombinant hIFN-γ receptor (the extracellular part of the IFNGR1) (human, UniProt P15260 18-245)
T1 construct: extracellular domain; In solution for ITC; also called soluble (extracellular) part of the hIFN-γ receptor IFNGR1; interferon-gamma receptor
T1 sequence (looked up): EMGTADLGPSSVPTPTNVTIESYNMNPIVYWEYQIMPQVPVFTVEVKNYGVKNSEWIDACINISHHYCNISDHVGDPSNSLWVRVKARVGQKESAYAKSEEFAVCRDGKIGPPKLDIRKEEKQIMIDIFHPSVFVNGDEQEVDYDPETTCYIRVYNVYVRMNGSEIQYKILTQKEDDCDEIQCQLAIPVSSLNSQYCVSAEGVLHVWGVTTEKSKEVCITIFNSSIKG

T2: hIFN-γ receptor on human amniotic WISH cells (human, UniProt P15260 18-489)
T2 sequence (looked up): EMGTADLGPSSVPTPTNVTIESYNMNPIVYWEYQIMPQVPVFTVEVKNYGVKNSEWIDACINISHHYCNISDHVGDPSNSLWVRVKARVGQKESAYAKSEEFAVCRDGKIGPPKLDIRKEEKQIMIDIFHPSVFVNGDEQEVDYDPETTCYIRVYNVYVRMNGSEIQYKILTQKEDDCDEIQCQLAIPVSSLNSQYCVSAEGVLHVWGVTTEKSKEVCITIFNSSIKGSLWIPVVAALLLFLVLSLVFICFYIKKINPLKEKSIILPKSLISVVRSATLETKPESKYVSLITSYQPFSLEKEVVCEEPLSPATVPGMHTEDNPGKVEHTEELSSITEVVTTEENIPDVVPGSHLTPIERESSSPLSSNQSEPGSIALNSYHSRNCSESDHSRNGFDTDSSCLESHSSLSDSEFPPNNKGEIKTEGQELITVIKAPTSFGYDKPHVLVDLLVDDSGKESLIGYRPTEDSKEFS


What was measured:
[1] = molecular target: T1, recombinant hIFN-γ receptor (the …); assay: ITC, IFNGR1 in the cell titrated with ligand, 20°C
[2] = molecular target: T2, hIFN-γ receptor on human amniotic WISH …; assay: cell-based or functional assay

| Kd [1] [nM] | Competitive ability % [2] [%] | Binder |
| --- | --- | --- |
| 18.9 | 25 | K88Q (138 aa) (ligand, human, UniProt P01579 24-161, looked up, range 1-138; also called Control 3: K88Q(138 aa); Control 2: K88Q) QDPYVKEAENLKKYFNAGHSDVADNGTLFLGILKNWKEESDRKIMQSQIVSFYFKLFKNFKDDQSIQKSVETIKEDMNVKFFNSNKKQRDDFEKLTNYSVTDLNVQRKAIHELIQVMAELSPAAKTGKRKRSQMLFRG |
| 28.2 | 35 | anti-gamma mutant protein K88Q_T27Y (138 aa) (ligand, Expressed in E. coli as a HIS-SUMO fusion and the tag was cleaved off; Positions count on the mature 143 aa hIFN-γ) QDPYVKEAENLKKYFNAGHSDVADNGYLFLGILKNWKEESDRKIMQSQIVSFYFKLFKNFKDDQSIQKSVETIKEDMNVKFFNSNKKQRDDFEKLTNYSVTDLNVQRKAIHELIQVMAELSPAAKTGKRKRSQMLFRG |
| 136 | – | reference hIFN-γ (143 aa) (ligand, human, UniProt P01579 24-161, looked up, mature; also called standard hIFN-γ; wild type hIFN-γ) QDPYVKEAENLKKYFNAGHSDVADNGTLFLGILKNWKEESDRKIMQSQIVSFYFKLFKNFKDDQSIQKSVETIKEDMNVKFFNSNKKKRDDFEKLTNYSVTDLNVQRKAIHELIQVMAELSPAAKTGKRKRSQMLFRG |
| – | 30 | anti-gamma mutant protein K88Q_D41N (138 aa) (ligand) QDPYVKEAENLKKYFNAGHSDVADNGTLFLGILKNWKEESNRKIMQSQIVSFYFKLFKNFKDDQSIQKSVETIKEDMNVKFFNSNKKQRDDFEKLTNYSVTDLNVQRKAIHELIQVMAELSPAAKTGKRKRSQMLFRG |
